Experimental data: article PMC11388069

Experiments:
[1] = immunofluorescence, plasma membrane P-gp; details: glycan changed form; control: parental MCF7DOX
[2] = AHA labelling of newly synthesized P-gp; details: glycan changed form; control: parental MCF7DOX
[3] = NHS-LC-biotin labelled membranous P-gp degradation; details: glycan changed form; control: parental MCF7DOX
[4] = proteomics and blot of isolated microvesicles; details: glycan changed form; control: MCF7DOX-MVs
[5] = immunoprecipitation, western blot; details: glycan changed form; control: parental MCF7DOX

Substance: P-glycoprotein (P-gp, MDR1): MGAT3 overexpression
- localisation_or_trafficking [1]: decreases
- other: new protein synthesis [2]: no change
- degradation_or_half_life [3]: increases
- other: recruitment into microvesicles [4]: decreases
- expression_or_secretion [5]: decreases
